Test results taken from US20240252614A1 (Pfizer, published 2024).

How the values were obtained:
[1] = molecular target: T1, hMPV086 (hMPV A, UniProt Q6WB98 19-102); assay: BLI, no stress
T1 construct: T411C-Q434C, L141C-A161C, T49I; also called hMP0086
Procedure: (§1) The OCTET HTX (Sartorius, Gottingen, Germany) instrument was used to evaluate the expression and conformational integrity for each mutant. All measurements were conducted at 30° C. temperature in 96-well black plates (Corning, Corning, NY) with a final volume of 240 μL per well at a constant agitation rate of 1000 RPM.
(§2) Conformation integrity of hMPV A F protein mutants were evaluated by thermal stress experiments. Crude cell culture supernatants were normalized based on the results of the titer quantitation and then incubated for 1 hour at room temperature and two higher temperatures. […] Anti-Human IgG Fc Capture (AHC) biosensors were first equilibrated in PB before being dipped into more PB to establish the initial baseline. […] The mAb-bound biosensors were then dipped into the thermal stressed cell culture supernatants for 5 minutes. The kinetics analysis was done by OCTET data analysis software (version 12.0, Sartorius) based on curve fitting of the entire associate step.

[2] = molecular target: T2, hMPV097 (hMPV A, UniProt Q6WB98 19-102); assay: BLI, no stress
T2 construct: T411C-Q434C, E146C-T160C, A459P, G239A, T49I, S149T, T365I
Procedure: as §1, §2

[3] = molecular target: T3, hMPV079 (hMPV A, UniProt Q6WB98 19-102); assay: BLI, no stress
T3 construct: T411C-Q434C, A140C-S149C, A459P
Procedure: as §1, §2

[4] = molecular target: T4, hMPV085 (hMPV A, UniProt Q6WB98 19-102); assay: BLI, no stress
T4 construct: T411C-Q434C, L141C-A161C, A459P
Procedure: as §1, §2

[5] = molecular target: T5, hMPV100 (hMPV B, UniProt Q6WB98 19-102); assay: BLI, 53C stress
T5 construct: T411C-Q434C
Procedure: (§3) All measurements were conducted at 30° C. temperature in 96-well black plates (Corning, Corning, NY) with a final volume of 240 μL per well at a constant agitation rate of 1000 RPM.
(§4) Conformation integrity of hMPV B F protein mutants were evaluated by a thermal stress experiment. Crude cell culture supernatants were normalized based on the results of the titer quantitation and then incubated for 1 hour at room temperature and two higher temperatures. For the testing of hMPV B single mutants, the two temperatures were 53° C. and 56° C. After the incubation, the protein mutants were probed with prefusion specific monoclonal antibody hMPV-2 by OCTET HTX. Anti-Human IgG Fc Capture (AHC) biosensors were first equilibrated in PB before being dipped into more PB for to establish the initial baseline. Biosensors were incubated with hMPV-2 before being equilibrated in PB to establish the experimental baseline. The mAb-bound biosensors were then dipped into the thermal stresses cell culture supernatants for 5 minutes.

[6] = molecular target: T6, hMPV105 (hMPV B, UniProt Q6WB98 19-102); assay: BLI, 53C stress
T6 construct: G239A
Procedure: as §3, §4

[7] = molecular target: T7, hMPV106 (hMPV B, UniProt Q6WB98 19-102); assay: BLI, 53C stress
T7 construct: T49I
Procedure: as §3, §4

[8] = molecular target: T8, hMPV103 (hMPV B, UniProt Q6WB98 19-102); assay: BLI, 53C stress
T8 construct: E146C-T160C
Procedure: as §3, §4

[9] = molecular target: T9, hMPV104 (hMPV B, UniProt Q6WB98 19-102); assay: BLI, 53C stress
T9 construct: A459P
Procedure: as §3, §4

[10] = molecular target: T10, hMPV B F WT Control (hMPV B, UniProt Q6WB98 19-102); assay: BLI, 53C stress
Procedure: as §3, §4

[11] = molecular target: T5, hMPV100; assay: BLI, 56C stress
Procedure: as §3, §4

[12] = molecular target: T11, hMPV101 (hMPV B, UniProt Q6WB98 19-102); assay: BLI, 56C stress
T11 construct: A140C-S149C
Procedure: as §3, §4

[13] = molecular target: T6, hMPV105; assay: BLI, 56C stress
Procedure: as §3, §4

[14] = molecular target: T7, hMPV106; assay: BLI, 56C stress
Procedure: as §3, §4

[15] = molecular target: T12, hMPV107 (hMPV B, UniProt Q6WB98 19-102); assay: BLI, 56C stress
T12 construct: S149T
Procedure: as §3, §4

[16] = molecular target: T13, hMPV108 (hMPV B, UniProt Q6WB98 19-102); assay: BLI, 56C stress
T13 construct: T365I
Procedure: as §3, §4

[17] = molecular target: T14, hMPV102 (hMPV B, UniProt Q6WB98 19-102); assay: BLI, 56C stress
T14 construct: L141C-A161C
Procedure: as §3, §4

[18] = molecular target: T8, hMPV103; assay: BLI, 56C stress
Procedure: as §3, §4

[19] = molecular target: T9, hMPV104; assay: BLI, 56C stress
Procedure: as §3, §4

[20] = molecular target: T10, hMPV B F WT Control; assay: BLI, 56C stress
Procedure: as §3, §4

[21] = molecular target: T15, PIV1023 (PIV1); assay: BLI, 53C stress;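 also: binding of thermally stressed PIV1 F mutant supernatant to mAb on AHC biosensors for 5 min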
T15 construct: A466L
Procedure: as §3
(§5) Conformation integrity of PIV1 F protein mutants were evaluated by a thermal stress experiment. Crude cell culture supernatants were normalized based on the results of the titer quantitation and then incubated for 1 hour at room temperature and two higher temperatures. For the initial testing of PIV1 mutants, the two temperatures were 50° C. and 53° C. […] Anti-Human IgG Fc Capture (AHC) biosensors were first equilibrated in PB for before being dipped into more PB to establish the initial baseline. […] The mAb-bound biosensors were then dipped into the thermal stresses cell culture supernatants for 5 minutes.

[22] = molecular target: T16, PIV1036 (PIV1); assay: BLI, 53C stress;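 also: binding of thermally stressed PIV1 F mutant supernatant to mAb on AHC biosensors for 5 min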
T16 construct: G134A
Procedure: as §3, §5

[23] = molecular target: T17, PIV1039 (PIV1); assay: BLI, 53C stress;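 also: binding of thermally stressed PIV1 F mutant supernatant to mAb on AHC biosensors for 5 min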
T17 construct: A128P
Procedure: as §3, §5

[24] = molecular target: T18, PIV1024 (PIV1); assay: BLI, 53C stress;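 also: binding of thermally stressed PIV1 F mutant supernatant to mAb on AHC biosensors for 5 min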
T18 construct: A466V
Procedure: as §3, §5

[25] = molecular target: T19, PIV1027 (PIV1); assay: BLI, 53C stress
T19 construct: S473L
Procedure: as §3, §5

[26] = molecular target: T20, PIV1031 (PIV1); assay: BLI, 53C stress
T20 construct: A466L, S473L
Procedure: as §3, §5

[27] = molecular target: T21, PIV1030 (PIV1); assay: BLI, 53C stress
T21 construct: A466L, S473A
Procedure: as §3, §5

[28] = molecular target: T22, PIV1026 (PIV1); assay: BLI, 53C stress
T22 construct: S473V
Procedure: as §3, §5

[29] = molecular target: T23, PIV1033 (PIV1); assay: BLI, 53C stress
T23 construct: T198A
Procedure: as §3, §5

[30] = molecular target: T24, PIV1028 (PIV1); assay: BLI, 53C stress
T24 construct: A480L
Procedure: as §3, §5

[31] = molecular target: T25, PIV1014 (PIV1); assay: BLI, 53C stress
T25 construct: Q92C-G134C
Procedure: as §3, §5

[32] = molecular target: T26, PIV1045 (PIV1); assay: BLI, no stress
T26 construct: Q92L, G134A
Procedure: as §3, §5

[33] = molecular target: T27, PIV1043 (PIV1); assay: BLI, no stress
T27 construct: Q92A, G134A
Procedure: as §3, §5

[34] = molecular target: T28, PIV1044 (PIV1); assay: BLI, no stress
T28 construct: Q92L
Procedure: as §3, §5

[35] = molecular target: T29, PIV1042 (PIV1); assay: BLI, no stress
T29 construct: Q92A
Procedure: as §3, §5

[36] = molecular target: T30, PIV1046 (PIV1); assay: BLI, no stress
T30 construct: A466V, S473V
Procedure: as §3, §5

[37] = molecular target: T26, PIV1045; assay: BLI, 53C stress
Procedure: as §3, §5

[38] = molecular target: T27, PIV1043; assay: BLI, 53C stress
Procedure: as §3, §5

[39] = molecular target: T28, PIV1044; assay: BLI, 53C stress
Procedure: as §3, §5

[40] = molecular target: T29, PIV1042; assay: BLI, 53C stress
Procedure: as §3, §5

[41] = molecular target: T30, PIV1046; assay: BLI, 53C stress
Procedure: as §3, §5

B1: hMPV-2 mAb (antibody, V domains shown)
VH: QVQLQQSGAEVKKPGASVKVSCKASGYTFTSYGISWVRQAPGQGLEWMGWISGYNGNTNYAQTFQGTFTMTTDTSTSTAYMELRRLRSGDTAVYYCARDRYYASGSYNGMDVWGQGTTVTVSS
VL: QSALTQPPSASGAPGQRVTVSCSGSSSNVGSSSVYWYQQLPGTAPKLLIYRNNQRPSGVPDRFSGSKSGTSASLAISGLRSEDEADYYCAAWDDSLSGWVFGGGTKLTVLG
notes: human IgG1
[1]
  Response Shift: 0.851 nm
[2]
  Response Shift: 0.923 nm
[3]
  Response Shift: 0.791 nm
[4]
  Response Shift: 0.766 nm
[5]
  Response Shift: 0.854 nm
[6]
  Response Shift: 0.785 nm
[7]
  Response Shift: 0.828 nm
[8]
  Response Shift: 0.588 nm
[9]
  Response Shift: 0.336 nm
[10]
  Response Shift: 0.418 nm
[11]
  Response Shift: 0.779 nm
[12]
  Response Shift: 0.649 nm
[13]
  Response Shift: 0.064 nm
[14]
  Response Shift: 0.397 nm
[15]
  Response Shift: 0.519 nm
[16]
  Response Shift: 0.04 nm
[17]
  Response Shift: 0.007 nm
[18]
  Response Shift: 0.041 nm
[19]
  Response Shift: -0.11 nm
[20]
  Response Shift: 0.005 nm

B2: PIV1-8 mAb (antibody, V domains shown)
VH: QVQLVQSGAEVKKPGSSVKVSCEASGGTFSNYVISWVRQAPGQGLEWMGGIIPVFATAKYAQKFQGRVTIIADQSTNTAYLELSSLRSDDTAVYFCASVDSGGTWWDAFAIWGQGTMVTVSS
VL: QAVVTQPRSVSGSPGQAVTISCTGTSSDVGGYNYVSWYQHHPGKAPKLIIYDVTKRPSGVPDRFSGSKSGNTASLTISGLQTEYEADYYCCSYAGSYTLVFGGGTKLTVLG
notes: human IgG1; also called hPIV1-8 mAb; hPIV1-8
[21]
  Response Shift: -0.001 nm
[22]
  Response Shift: -0.042 nm
[23]
  Response Shift: -0.055 nm
[24]
  Response Shift: -0.016 nm
[25]
  Response Shift: -0.02 nm
[26]
  Response Shift: 0.489 nm
[27]
  Response Shift: -0.046 nm
[28]
  Response Shift: -0.039 nm
[29]
  Response Shift: -0.073 nm
[30]
  Response Shift: -0.052 nm
[31]
  Response Shift: 0.009 nm
[32]
  Response Shift: 0.635 nm
[33]
  Response Shift: 0.725 nm
[34]
  Response Shift: 0.162 nm
[35]
  Response Shift: 0.192 nm
[36]
  Response Shift: 0.584 nm
[37]
  Response Shift: -0.054 nm
[38]
  Response Shift: -0.012 nm
[39]
  Response Shift: -0.007 nm
[40]
  Response Shift: -0.052 nm
[41]
  Response Shift: -0.059 nm
